{"source": "paper PMC3988174", "about": "“A Split-Ubiquitin Yeast Two-Hybrid Screen to Examine the Substrate Specificity of atToc159 and atToc132, Two Arabidopsis Chloroplast Preprotein Import Receptors” (PLoS ONE, 2014)", "binders": {"B1": {"name": "Cytochrome b561-2 (natural protein, Arabidopsis thaliana, UniProt Q8L856 1-239, looked up)", "chain": "MAVRINAMAVTFVAHALAVIAAIMVLVWSISYRGGLAWEATNKNLIFNLHPVLMLIGFIILGGEAIISYKSLPLEKPVKKLIHLILHAIALALGIFGICAAFKNHNESHIPNLYSLHSWIGIGVISLYGFQWVYSFIVFFFPGGSTNLKSGLLPWHAMLGLFVYILAVGNAALGFLEKLTFLENGGLDKYGSEAFLINFTAIITILFGAFVVLTASAESPSPSPSVSNDDSVDFSYSAI"}, "B2": {"name": "Violaxanthin Deepoxidase (natural protein, Arabidopsis thaliana, UniProt Q39249 1-462, looked up)", "chain": "MAVATHCFTSPCHDRIRFFSSDDGIGRLGITRKRINGTFLLKILPPIQSADLRTTGGRSSRPLSAFRSGFSKGIFDIVPLPSKNELKELTAPLLLKLVGVLACAFLIVPSADAVDALKTCACLLKGCRIELAKCIANPACAANVACLQTCNNRPDETECQIKCGDLFENSVVDEFNECAVSRKKCVPRKSDLGEFPAPDPSVLVQNFNISDFNGKWYITSGLNPTFDAFDCQLHEFHTEGDNKLVGNISWRIKTLDSGFFTRSAVQKFVQDPNQPGVLYNHDNEYLHYQDDWYILSSKIENKPEDYIFVYYRGRNDAWDGYGGAVVYTRSSVLPNSIIPELEKAAKSIGRDFSTFIRTDNTCGPEPALVERIEKTVEEGERIIVKEVEEIEEEVEKEVEKVGRTEMTLFQRLAEGFNELKQDEENFVRELSKEEMEFLDEIKMEASEVEKLFGKALPIRKVR"}, "B3": {"name": "Ferredoxin-thioredoxin reductase subunit A (natural protein, Arabidopsis thaliana, UniProt Q9SJ89 1-146, looked up)", "chain": "MNLQAVSCSFGFLSSPLGVTPRTSFRRFVIRAKTEPSEKSVEIMRKFSEQYARRSGTYFCVDKGVTSVVIKGLAEHKDSYGAPLCPCRHYDDKAAEVGQGFWNCPCVPMRERKECHCMLFLTPDNDFAGKDQTITSDEIKETTANM"}, "B4": {"name": "Photosystem I light harvesting complex gene 2 (natural protein, Arabidopsis thaliana, UniProt Q9SYW8 1-257, looked up)", "chain": "MASSLCASSAIAAISSPSFLGGKKLRLKKKLTVPAVSRPDASVRAVAADPDRPIWFPGSTPPEWLDGSLPGDFGFDPLGLSSDPDSLKWNVQAEIVHCRWAMLGAAGIFIPEFLTKIGILNTPSWYTAGEQEYFTDKTTLFVVELILIGWAEGRRWADIIKPGSVNTDPVFPNNKLTGTDVGYPGGLWFDPLGWGSGSPAKLKELRTKEIKNGRLAMLAVMGAWFQHIYTGTGPIDNLFAHLADPGHATIFAAFTPK"}, "B5": {"name": "5′-Adenylylsulfate reductase 2 (natural protein, Arabidopsis thaliana, UniProt P92981 1-454, looked up)", "chain": "MALAVTSSSTAISGSSFSRSGASSESKALQICSIRLSDRTHLSQRRYSMKPLNAESHSRSESWVTRASTLIAPEVEEKGGEVEDFEQLAKKLEDASPLEIMDKALERFGDQIAIAFSGAEDVALIEYARLTGKPFRVFSLDTGRLNPETYRLFDAVEKQYGIRIEYMFPDAVEVQALVRNKGLFSFYEDGHQECCRVRKVRPLRRALKGLKAWITGQRKDQSPGTRSEIPIVQVDPVFEGLDGGVGSLVKWNPLANVEGADVWNFLRTMDVPVNALHAQGYVSIGCEPCTRPVLPGQHEREGRWWWEDAKAKECGLHKGNIKEEDGAADSKPAAVQEIFESNNVVALSKGGVENLLKLENRKEAWLVVLYAPWCPFCQAMEASYIELAEKLAGKGVKVAKFRADGEQKEFAKQELQLGSFPTILLFPKRAPRAIKYPSEHRDVDSLMSFVNLLR"}, "B6": {"name": "Cysteine synthase (natural protein)", "chain": "not shown"}, "B7": {"name": "Photosystem I reaction center subunit PSI-N (natural protein, Arabidopsis thaliana, UniProt P49107 1-171, looked up)", "chain": "MAAMNSSVLTCSYAIAGSGSVELNQKVGLVNSSVGFGQKKQMIMPVIKAQRVVGDDVDGSNGRRSAMVFLAATLFSTAAVSASANAGVIDEYLERSKTNKELNDKKRLATSGANFARAFTVQFGSCKFPENFTGCQDLAKQKKVPFISEDIALECEGKDKYKCGSNVFWKW"}, "B8": {"name": "AIG2-like avirulence induced gene family protein (natural protein, Arabidopsis thaliana, UniProt Q9MBH2 1-169, looked up)", "chain": "MTSSDKSLSHDVFVYGSFQEPSVVNLILECSPVMVPAQLHGYHVYRLKGRLHACISPSENGLINGKILTGLTDSQLENLDMIEGSEYVRKTVEVVLTDTSEKKQVETYVWANKDDPNLYGEWDFEEWRRLHMDKFIEASTKFIEWKKNPDGRSREEFEKFVFDDPPTAA"}, "B9": {"name": "Photosystem I light harvesting complex gene 1 (natural protein, Arabidopsis thaliana, UniProt Q01667 1-241, looked up)", "chain": "MASNSLMSCGIAAVYPSLLSSSKSKFVSAGVPLPNAGNVGRIRMAAHWMPGEPRPAYLDGSAPGDFGFDPLGLGEVPANLERYKESELIHCRWAMLAVPGILVPEALGYGNWVKAQEWAALPGGQATYLGNPVPWGTLPTILAIEFLAIAFVEHQRSMEKDPEKKKYPGGAFDPLGYSKDPKKLEELKVKEIKNGRLALLAFVGFCVQQSAYPGTGPLENLATHLADPWHNNIGDIVIPFN"}, "B10": {"name": "Low PSII accumulation 3 protein (natural protein)", "chain": "not shown"}, "B11": {"name": "Photosystem I light harvesting complex gene 3 (natural protein, Arabidopsis thaliana, UniProt Q9SY97 1-273, looked up)", "chain": "MAAQALVSSSLTSSVQTARQIFGSKPVASASQKKSSFVVKAAATPPVKQGANRPLWFASSQSLSYLDGSLPGDYGFDPLGLSDPEGTGGFIEPRWLAYGEIINGRFAMLGAAGAIAPEILGKAGLIPAETALPWFQTGVIPPAGTYTYWADNYTLFVLEMALMGFAEHRRLQDWYNPGSMGKQYFLGLEKGLAGSGNPAYPGGPFFNPLGFGKDEKSLKELKLKEVKNGRLAMLAILGYFIQGLVTGVGPYQNLLDHLADPVNNNVLTSLKFH"}, "B12": {"name": "Protochlorophyllide oxidoreductase B (natural protein, Arabidopsis thaliana, UniProt P21218 1-401, looked up)", "chain": "MALQAASLVSSAFSVRKDAKLNASSSSFKDSSLFGASITDQIKSEHGSSSLRFKREQSLRNLAIRAQTAATSSPTVTKSVDGKKTLRKGNVVVTGASSGLGLATAKALAETGKWNVIMACRDFLKAERAAKSVGMPKDSYTVMHLDLASLDSVRQFVDNFRRTETPLDVLVCNAAVYFPTAKEPTYSAEGFELSVATNHLGHFLLARLLLDDLKKSDYPSKRLIIVGSITGNTNTLAGNVPPKANLGDLRGLAGGLNGLNSSAMIDGGDFDGAKAYKDSKVCNMLTMQEFHRRFHEETGVTFASLYPGCIASTGLFREHIPLFRALFPPFQKYITKGYVSETESGKRLAQVVSDPSLTKSGVYWSWNNASASFENQLSEEASDVEKARKVWEISEKLVGLA"}, "B13": {"name": "Photosystem I subunit F (natural protein, Arabidopsis thaliana, UniProt Q9SHE8 1-221, looked up)", "chain": "MSLTIPANLVLNPRSNKSLTQSVPKSSARFVCSDDKSSSSTPQSMKAFSAAVALSSILLSAPMPAVADISGLTPCKDSKQFAKREKQQIKKLESSLKLYAPESAPALALNAQIEKTKRRFDNYGKYGLLCGSDGLPHLIVNGDQRHWGEFITPGILFLYIAGWIGWVGRSYLIAISGEKKPAMKEIIIDVPLASRIIFRGFIWPVAAYREFLNGDLIAKDV"}}}
{"target": "T1, atToc132 A- plus G-domains bait (Arabidopsis thaliana, UniProt Q9SLF3 1-794)", "T1 construct": "atToc132, A. thaliana, A- and G-domains, amino acids 1-794; also called Toc132AG; atToc132AG; source: yeast two-hybrid fusion (pBT3-STE, S. cerevisiae NMY51); not shown: STE2 leader (N-terminal 13 amino acids of S. cerevisiae Ste2), N-terminal, kept; Cub-LexA-VP16, C-terminal, kept", "T1 sequence (Q9SLF3 1-794)": "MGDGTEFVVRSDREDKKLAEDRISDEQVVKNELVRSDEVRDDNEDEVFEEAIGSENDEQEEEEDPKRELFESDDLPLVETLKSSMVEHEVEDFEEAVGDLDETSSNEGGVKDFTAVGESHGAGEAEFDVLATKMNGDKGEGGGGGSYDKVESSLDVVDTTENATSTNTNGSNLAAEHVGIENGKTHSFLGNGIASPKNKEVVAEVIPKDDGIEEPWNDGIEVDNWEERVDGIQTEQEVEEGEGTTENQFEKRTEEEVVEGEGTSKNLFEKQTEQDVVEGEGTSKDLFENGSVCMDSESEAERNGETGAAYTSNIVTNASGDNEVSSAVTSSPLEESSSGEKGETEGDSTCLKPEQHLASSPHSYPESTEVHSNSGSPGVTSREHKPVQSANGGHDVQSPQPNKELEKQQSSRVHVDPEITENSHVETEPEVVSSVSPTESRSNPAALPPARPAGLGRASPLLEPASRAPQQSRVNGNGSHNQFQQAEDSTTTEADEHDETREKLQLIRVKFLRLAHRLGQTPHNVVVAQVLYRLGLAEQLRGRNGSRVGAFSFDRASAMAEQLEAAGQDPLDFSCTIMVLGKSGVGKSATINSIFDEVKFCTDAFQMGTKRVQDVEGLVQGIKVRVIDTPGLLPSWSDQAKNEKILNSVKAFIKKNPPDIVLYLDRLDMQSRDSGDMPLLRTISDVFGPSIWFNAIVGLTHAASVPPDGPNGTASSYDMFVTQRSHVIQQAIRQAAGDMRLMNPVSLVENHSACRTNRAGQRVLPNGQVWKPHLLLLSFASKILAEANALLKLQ", "test": "two-hybrid; pairwise split-ubiquitin yeast two-hybrid of isolated NubG-preys with Toc159G, Toc132G or Toc132AG bait in NMY51; growth on SD-LWHA (3-AT) and quantitative β-Gal assay, activity relative to a reference bait set to 100%", "conditions": "partners not purified", "units": {"% increase in strength of interaction (β-Gal) with Toc132AG against Toc132G": "%", "relative strength of interaction (β-Gal) with Toc132AG against Toc132G, % change": "%"}}
{"binder": "B1", "% increase in strength of interaction (β-Gal) with Toc132AG against Toc132G": 49.6}
{"binder": "B2", "relative strength of interaction (β-Gal) with Toc132AG against Toc132G, % change": -29.9}
{"binder": "B3", "relative strength of interaction (β-Gal) with Toc132AG against Toc132G, % change": -15}
{"binder": "B4", "relative strength of interaction (β-Gal) with Toc132AG against Toc132G, % change": -36.4}
{"binder": "B5", "% increase in strength of interaction (β-Gal) with Toc132AG against Toc132G": 24.5}
{"binder": "B6", "% increase in strength of interaction (β-Gal) with Toc132AG against Toc132G": 175}
{"binder": "B7", "relative strength of interaction (β-Gal) with Toc132AG against Toc132G, % change": -25.4}
{"binder": "B8", "% increase in strength of interaction (β-Gal) with Toc132AG against Toc132G": 41.3}
{"binder": "B9", "relative strength of interaction (β-Gal) with Toc132AG against Toc132G, % change": -24.5}
{"binder": "B10", "relative strength of interaction (β-Gal) with Toc132AG against Toc132G, % change": -11.7}
{"binder": "B11", "relative strength of interaction (β-Gal) with Toc132AG against Toc132G, % change": -26.8}
{"binder": "B12", "relative strength of interaction (β-Gal) with Toc132AG against Toc132G, % change": -34.7}
{"binder": "B13", "relative strength of interaction (β-Gal) with Toc132AG against Toc132G, % change": -25.5}
